# According to the supplement of paper PMC11246515:
# ± gives the standard deviation of the averaged measurements.
# Assay: total protein half-life in vivo (active degradation + dilution); higher = more stable protein
# [1] = E. coli NCM3722 delta-clpP delta-lon delta-hslV, growth: N-lim chemostat, doubling time 6 h
# [2] = E. coli NCM3722 delta-clpP, growth: N-lim chemostat, doubling time 6 h
# [3] = E. coli NCM3722 delta-hslV, growth: N-lim chemostat, doubling time 6 h
# [4] = E. coli NCM3722 delta-lon, growth: N-lim chemostat, doubling time 6 h
# [5] = E. coli NCM3722 delta-smpB, growth: N-lim chemostat, doubling time 6 h
# [6] = wild type E. coli NCM3722, growth: C-lim chemostat, doubling time 3 h
# [7] = wild type E. coli NCM3722, growth: C-lim chemostat, doubling time 6 h
# [8] = wild type E. coli NCM3722, growth: C-lim chemostat, doubling time 12 h
# [9] = wild type E. coli NCM3722, growth: N-lim chemostat, doubling time 6 h
# [10] = wild type E. coli NCM3722, growth: N-lim chemostat, doubling time 12 h
# [11] = wild type E. coli NCM3722, growth: P-lim chemostat, doubling time 6 h
# [12] = wild type E. coli NCM3722, growth: P-lim chemostat, doubling time 12 h
Sequence,total protein half-life in vivo [1] [h],total protein half-life in vivo [2] [h],total protein half-life in vivo [3] [h],total protein half-life in vivo [4] [h],total protein half-life in vivo [5] [h],total protein half-life in vivo [6] [h],total protein half-life in vivo [7] [h],total protein half-life in vivo [8] [h],total protein half-life in vivo [9] [h],total protein half-life in vivo [10] [h],total protein half-life in vivo [11] [h],total protein half-life in vivo [12] [h]
MKPSSSNSRSKGHAKARRKTREELDQEARDRKRQKKRRGHAPGSRAAGGNTTSGSKGQNAPKDPRIGSKTPIPLGVTEKVTKQHKPKSEKPMLSPQAELELLETDERLDALLERLEAGETLSAEEQSWVDAKLDRIDELMQKLGLSYDDDEEEEEDEKQEDMMRLLRGN [P0A8H6],5.38 ± 0.29,5.18 ± 0.7,4.08 ± 0.55,3.93 ± 0.22,4.09 ± 1.7,2.52 ± 0.0028,4.36 ± 0.45,7.24 ± 1.8,3.59 ± 0.17,5.58 ± 1,2.98,5.38 ± 0.71
MKKIWLALAGLVLAFSASAAQYEDGKQYTTLEKPVAGAPQVLEFFSFFCPHCYQFEEVLHISDNVKKKLPEGVKMTKYHVNFMGGDLGKDLTQAWAVAMALGVEDKVTVPLFEGVQKTQTIRSASDIRDVFINAGIKGEEYDAAWNSFVVKSLVAQQEKAAADVQLRGVPAMFVNGKYQLNPQGMDTSNMDVFVQQYADTVKYLSEKK [P0AEG4],5.32 ± 0.12,5.05 ± 0.36,6.08 ± 0.13,6.83 ± 0.3,6.24 ± 0.57,3.03 ± 0.28,5.32 ± 0.28,8.77 ± 2.3,5.73 ± 0.14,11.62 ± 0.096,5.665 ± 0.0088,11.5 ± 1
MIKQRTLKRIVQATGVGLHTGKKVTLTLRPAPANTGVIYRRTDLNPPVDFPADAKSVRDTMLCTCLVNEHDVRISTVEHLNAALAGLGIDNIVIEVNAPEIPIMDGSAAPFVYLLLDAGIDELNCAKKFVRIKETVRVEDGDKWAEFKPYNGFSLDFTIDFNHPAIDSSNQRYAMNFSADAFMRQISRARTFGFMRDIEYLQSRGLCLGGSFDCAIVVDDYRVLNEDGLRFEDEFVRHKMLDAIGDLFMCGHNIIGAFTAYKSGHALNNKLLQAVLAKQEAWEYVTFQDDAELPLAFKAPSAVLA [P0A725],2.8 ± 0.28,0.889 ± 0.17,0.979 ± 0.33,1.03 ± 0.011,0.639 ± 0.021,0.467 ± 0.1,0.861 ± 0.11,1.1 ± 0.33,0.978 ± 0.12,1.43 ± 0.28,1.06 ± 0.19,2.1 ± 0.78
MLRMTPLASAIVALLLGIEAYAAEETFDTHFMIGGMKDQQVANIRLDDNQPLPGQYDIDIYVNKQWRGKYEIIVKDNPQETCLSREVIKRLGINSDNFASGKQCLTFEQLVQGGSYTWDIGVFRLDFSVPQAWVEELESGYVPPENWERGINAFYTSYYLSQYYSDYKASGNNKSTYVRFNSGLNLLGWQLHSDASFSKTNNNPGVWKSNTLYLERGFAQLLGTLRVGDMYTSSDIFDSVRFRGVRLFRDMQMLPNSKQNFTPRVQGIAQSNALVTIEQNGFVVYQKEVPPGPFAITDLQLAGGGADLDVSVKEADGSVTTYLVPYAAVPNMLQPGVSKYDLAAGRSHIEGASKQSDFVQAGYQYGFNNLLTLYGGSMVANNYYAFTLGAGWNTRIGAISVDATKSHSKQDNGDVFDGQSYQIAYNKFVSQTSTRFGLAAWRYSSRDYRTFNDHVWANNKDNYRRDENDVYDIADYYQNDFGRKNSFSANMSQSLPEGWGSVSLSTLWRDYWGRSGSSKDYQLSYSNNLRRISYTLAASQAYDENHHEEKRFNIFISIPFDWGDDVSTPRRQIYMSNSTTFDDQGFASNNTGLSGTVGSRDQFNYGVNLSHQHQGNETTAGANLTWNAPVATVNGSYSQSSTYRQAGASVSGGIVAWSGGVNLANRLSETFAVMNAPGIKDAYVNGQKYRTTNRNGVVIYDGMTPYRENHLMLDVSQSDSEAELRGNRKIAAPYRGAVVLVNFDTDQRKPWFIKALRADGQSLTFGYEVNDIHGHNIGVVGQGSQLFIRTNEVPPSVNVAIDKQQGLSCTITFGKEIDESRNYICQ,–,–,–,–,–,–,–,–,–,–,–,9.63
MIVKKLTLPKDFLWGGAVAAHQVEGGWNKGGKGPSICDVLTGGAHGVPREITKEVLPGKYYPNHEAVDFYGHYKEDIKLFAEMGFKCFRTSIAWTRIFPKGDEAQPNEEGLKFYDDMFDELLKYNIEPVITLSHFEMPLHLVQQYGSWTNRKVVDFFVRFAEVVFERYKHKVKYWMTFNEINNQRNWRAPLFGYCCSGVVYTEHENPEETMYQVLHHQFVASALAVKAARRINPEMKVGCMLAMVPLYPYSCNPDDVMFAQESMRERYVFTDVQLRGYYPSYVLNEWERRGFNIKMEDGDLDVLREGTCDYLGFSYYMTNAVKAEGGTGDAISGFEGSVPNPYVKASDWGWQIDPVGLRYALCELYERYQRPLFIVENGFGAYDKVEEDGSINDDYRIDYLRAHIEEMKKAVTYDGVDLMGYTPWGCIDCVSFTTGQYSKRYGFIYVNKHDDGTGDMSRSRKKSFNWYKEVIASNGEKL,5.79 ± 0.69,5.12 ± 0.34,5.44 ± 0.26,5.46 ± 0.0062,4.985 ± 0.0067,3.08 ± 0.12,5.89 ± 0.32,10.03 ± 0.031,4.85 ± 0.075,9.46 ± 0.4,6.17 ± 0.47,11.1 ± 0.41
MKRQKRDRLERAHQRGYQAGIAGRSKEMCPYQTLNQRSQWLGGWREAMADRVVMA [P0AFW2],0.535,0.588,0.382,0.441,0.472 ± 0.2,–,0.0712,0.0514 ± 0.073,0.352,0.686 ± 0.26,–,1.16
MPSTPEEKKKVLTRVRRIRGQIDALERSLEGDAECRAILQQIAAVRGAANGLMAEVLESHIRETFDRNDCYSREVSQSVDDTIELVRAYLK [P0AAP3],6.53 ± 0.38,5.29 ± 0.36,4.99 ± 0.14,> 8,3.92 ± 0.13,2.5 ± 0.24,5.52 ± 0.22,8.3 ± 1.8,4.16 ± 0.36,7.59,4.67 ± 1.9,8.57 ± 0.52
